Measurements: IntAct's records for PubMed 19571008

B1: Non-homologous end-joining protein 1 (Saccharomyces cerevisiae), Q06148 (parent)
chain: MDSELKGQQLSDAEWCVKKINGEGNCLLLFLPMSSPTTIVMIVLVSLERLVPYVFKLSQTQLSQQCQSQGFTDSISLNLIKLKLMDILQAPQEINQIGLVDSNLVFSFDVSADITVSINSVPSHVTKDMFYMILQSLCMLLLKLVNLSTQYHYVQRDILNEKQKCLDFLLISLRDLDGGSKVISQWAPENSKNYESLQQCTDDDIIKKLLHKGKFQHQEFLADSLKTLLSLRNKFQDVSRFEESGELNKKERVRFPAVNHFYNDDFELQADPTNEARPNSRGKIKPKTDFKPKSRESSTSSQLRLENFSESEATPEKTKSSSSLVEEYPQKKRKFGKVRIKN

Variants of: B1
Settings: with srs2_yeast SRS2, P12954
srs2_yeast SRS2, P12954, sequence (P12954 whole entry): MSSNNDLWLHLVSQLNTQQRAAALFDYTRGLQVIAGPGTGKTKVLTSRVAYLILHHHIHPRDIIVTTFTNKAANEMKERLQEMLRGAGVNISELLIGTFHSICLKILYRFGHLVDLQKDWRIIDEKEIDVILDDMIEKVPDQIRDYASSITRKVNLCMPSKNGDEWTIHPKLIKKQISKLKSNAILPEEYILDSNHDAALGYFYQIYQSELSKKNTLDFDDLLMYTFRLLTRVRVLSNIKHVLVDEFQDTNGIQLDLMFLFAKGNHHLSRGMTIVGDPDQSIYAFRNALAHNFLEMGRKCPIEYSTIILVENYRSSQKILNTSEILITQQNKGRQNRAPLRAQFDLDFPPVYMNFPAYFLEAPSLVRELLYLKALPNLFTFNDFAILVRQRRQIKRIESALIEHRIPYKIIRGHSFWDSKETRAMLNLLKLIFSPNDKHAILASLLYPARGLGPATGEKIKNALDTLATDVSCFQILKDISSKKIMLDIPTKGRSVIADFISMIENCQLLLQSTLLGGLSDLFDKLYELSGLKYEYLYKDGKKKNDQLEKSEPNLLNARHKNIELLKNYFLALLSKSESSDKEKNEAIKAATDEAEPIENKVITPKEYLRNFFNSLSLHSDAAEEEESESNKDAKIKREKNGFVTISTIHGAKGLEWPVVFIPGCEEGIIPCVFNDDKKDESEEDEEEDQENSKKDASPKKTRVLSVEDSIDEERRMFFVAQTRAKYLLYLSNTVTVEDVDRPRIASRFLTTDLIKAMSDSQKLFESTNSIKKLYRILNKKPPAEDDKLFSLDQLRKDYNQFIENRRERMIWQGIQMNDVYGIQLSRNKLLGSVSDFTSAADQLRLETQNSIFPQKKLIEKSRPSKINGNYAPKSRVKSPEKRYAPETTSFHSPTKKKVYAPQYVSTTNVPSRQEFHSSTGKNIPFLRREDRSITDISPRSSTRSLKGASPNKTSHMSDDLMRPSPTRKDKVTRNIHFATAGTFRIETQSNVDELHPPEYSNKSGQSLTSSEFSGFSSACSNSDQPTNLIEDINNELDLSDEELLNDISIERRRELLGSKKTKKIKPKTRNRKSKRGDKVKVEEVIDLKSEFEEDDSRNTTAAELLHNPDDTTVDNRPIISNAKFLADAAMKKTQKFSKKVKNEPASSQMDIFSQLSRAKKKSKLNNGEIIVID

Effect of a mutation on the interaction, disrupting interaction:
S297A
S297A;S298A
S298A
